Results taken from US20030190679A1 (Takeda / Millennium, published 2003).

Experiments:
[1] = target: CARD domain of CARD-5 (ASC) fused to the DNA-binding domain of pCMV-BD (UniProt Q9ULZ3 107-195); test: cell-based or functional assay
[2] = target: CARD domain of CARD-12 fused to the DNA-binding domain of pCMV-BD (self-association partner) (human); test: cell-based or functional assay
myc-tagged CARD-12 = target: T1, myc-tagged CARD-12 (human, UniProt Q9NPP4 1-1024); test: co-immunoprecipitation from 293T lysates (IP anti-T7, blot anti-myc)
T1 construct: Transiently overexpressed in 293T cells
Method: FIGS. 10A-10C depict the results of co-immunopreciptation analysis. FIG. 10A: After 24 hrs, extracts were prepared and immunoprecipitated (IP) with a monoclonal antibody to the T7 epitope. The immunoprecipitates were analyzed by SDS-PAGE and immunoblotted with an anti-myc polyclonal antibody. FIG. 10B: The cellular extracts were also immunoblotted (WB) with anti-T7 antibody. FIG. 10C: Extracts were also immunoprecipitated with a monoclonal antibody to myc, followed by WB with an anti-myc polyclonal antibody.
An additional mechanism by which CARD-12 may cause cell death is by the activation of upstream caspases via a CARD/CARD interaction. The proform of caspase-1 and caspase-9 both contain an N-terminal CARD. Therefore, caspase-1 and caspase-9 were investigated as possible CARD-12 signaling partners following transient overexpression in cells. Briefly, 293T cells transfected with plasmids were lysed in 50 mM Tris, pH 8.0, 120 mM NaCl, 1 mM EDTA, 0.5% Nonidet P-40 buffer and incubated with either a T7 (Sigma) or myc monoclonal antibody (SantaCruz Biotechnology, Inc.). The immune complexes were precipitated with protein G-Sepharose (Amersham Pharmacia Bio), washed extensively, and then subjected to SDS-polyacrylamide gel electrophoresis and immunoblotted with polyclonal antibody to myc (SantaCruz). […]

CARD domain of CARD-5 (ASC) fused to the DNA-binding domain of pCMV-BD, sequence (Q9ULZ3 whole entry, the tested form may be a part): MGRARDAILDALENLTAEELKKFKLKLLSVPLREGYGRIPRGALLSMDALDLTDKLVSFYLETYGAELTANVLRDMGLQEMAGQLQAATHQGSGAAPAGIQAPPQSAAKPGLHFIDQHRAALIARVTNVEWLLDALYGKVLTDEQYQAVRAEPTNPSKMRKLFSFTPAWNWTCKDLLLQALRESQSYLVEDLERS

relative luciferase activity (mammalian two-hybrid) [1]	relative luciferase activity (mammalian two-hybrid) [2]	binding result (myc-tagged CARD-12)	Binder
10 fold	30 fold	–	CARD domain of CARD-12 (residues 1-83) fused to the activation domain of pCMV-AD (plasmid pCMV-CARD-12-CARD/AD) (other, not shown: large carriers) MNFIKDNSRALIQRMGMTVIKQITDDLFVWNVLNREEVNIICCEKVEQDAARGIIHMILKKGSESCNLFLKSLKEWNYPLFQD
–	–	no binding	T7-tagged procaspase-9 (enzyme, UniProt P55211 1-416, looked up, not shown: small tags and cut ends, Transiently overexpressed in 293T cells) MDEADRRLLRRCRLRLVEELQVDQLWDALLSRELFRPHMIEDIQRAGSGSRRDQARQLIIDLETRGSQALPLFISCLEDTGQDMLASFLRTNRQAAKLSKPTLENLTPVVLRPEIRKPEVLRPETPRPVDIGSGGFGDVGALESLRGNADLAYILSMEPCGHCLIINNVNFCRESGLRTRTGSNIDCEKLRRRFSSLHFMVEVKGDLTAKKMVLALLELAQQDHGALDCCVVVILSHGCQASHLQFPGAVYGTDGCPVSVEKIVNIFNGTSCPSLGGKPKLFFIQACGGEQKDHGFEVASTSPEDESPGSNPEPDATPFQEGLRTFDQLDAISSLPTPSDIFVSYSTFPGFVSWRDPKSGSWYVETLDDIFEQWAHSEDLQSLLLRVANAVSVKGIYKQMPGCFNFLRKKLFFKTS
